Laboratory results: US9091695B2, “Methods and systems for quantification of peptides and other analytes” (Laboratory Corporation of America Holdings, priority 2007, dated 2015)

Key:
[1] = Stock solution / internal standard solution storage stability; assay type: physicochemical
[2] = Autosampler stability of calibrators and quality control samples; assay type: physicochemical; settings: stored in the autosampler at 10° C.
Method: The autosampler stability was evaluated using calibrators and quality control samples (LLOQ, mid-range and ULOQ using both pooled plasma and blank plasma calibrators). Duplicate curves were included with the batch. The first calibration curve was injected, then after 24 hours, the remaining quality control and calibration curve samples were injected. Both calibration curves were used to ascertain accuracy of pooled patient and blank plasma controls. The acceptability criteria is defined such that the standard curve back-fit data should be 80-120% at LLOQ, 85-115% at other concentrations of expected curve values. Mean accuracy of each quality control sample should be ≦±20% at the LLOQ and ≦±15% at all other levels.

Substance | Time internal standard solution is stable ([1]; refrigerated at 4° C.) | Time stock solution is stable ([1]; frozen at −70° C.) | Time stable in the autosampler [2]
[(U-23C9, 15N)-Tyr5], [(U-23C6, 15N)-Leu7], [(U-19C5, 15N)-Pro9]-Gonadorelin [GnRH internal standard] | up to 51 days | – | –
pGlu-His-Trp-Ser-Tyr-Gly-Leu-Arg-Pro-Gly-NH2 [GnRH] | – | up to 376 days | 24 h
